# B1: SEQ ID NO 7: Segniliparus rotundus carboxylate reductase, Genbank Accession No. ADG98140.1 (protein, listed as Segniliparus rotundus)
# chain: MTQSHTQGPQASAAHSRLARRAAELLATDPQAAATLPDPEVVRQATRPGLRLAERVDAILSGYADRPALGQRSFQTVKDPITGRSSVELLPTFDTITYRELRERATAIASDLAHHPQAPAKPGDFLASIGFISVDYVAIDIAGVFAGLTAVPLQTGATLATLTAITAETAPTLFAASIEHLPTAVDAVLATPSVRRLLVFDYRAGSDEDREAVEAAKRKIADAGSSVLVDVLDEVIARGKSAPKAPLPPATDAGDDSLSLLIYTSGSTGTPKGAMYPERNVAHFWGGVWAAAFDEDAAPPVPAINITFLPLSHVASRLSLMPTLARGGLMHFVAKSDLSTLFEDLKLARPTNLFLVPRVVEMLYQHYQSELDRRGVQDGTREAEAVKDDLRTGLLGGRILTAGFGSAPLSAELAGFIESLLQIHLVDGYGSTEAGPVWRDGYLVKPPVTDYKLIDVPELGYFSTDSPHPRGELAIKTQTILPGYYKRPETTAEVFDEDGFYLTGDVVAQIGPEQFAYVDRRKNVLKLSQGEFVTLAKLEAAYSSSPLVRQLFVYGSSERSYLLAVIVPTPDALKKFGVGEAAKAALGESLQKIARDEGLQSYEVPRDFIIETDPFTVENGLLSDARKSLRPKLKEHYGERLEAMYKELADGQANELRDIRRGVQQRPTLETVRRAAAAMLGASAAEIKPDAHFTDLGGDSLSALTFSNFLHDLFEVDVPVGVIVSAANTLGSVAEHIDAQLAGGRARPTFATVHGKGSTTIKASDLTLDKFIDEQTLEAAKHLPKPADPPRTVLLTGANGWLGRFLALEWLERLAPAGGKLITIVRGKDAAQAKARLDAAYESGDPKLAGHYQDLAATTLEVLAGDFSEPRLGLDEATWNRLADEVDFISHPGALVNHVLPYNQLFGPNVAGVAEIIKLAITTRIKPVTYLSTVAVAAGVEPSALDEDGDIRTVSAERSVDEGYANGYGNSKWGGEVLLREAHDRTGLPVRVFRSDMILAHQKYTGQVNATDQFTRLVQSLLATGLAPKSFYELDAQGNRQRAHYDGIPVDFTAESITTLGGDGLEGYRSYNVFNPHRDGVGLDEFVDWLIEAGHPITRIDDYDQWLSRFETSLRGLPESKRQASVLPLLHAFARPGPAVDGSPFRNTVFRTDVQKAKIGAEHDIPHLGKALVLKYADDIKQLGLL
# How the values were obtained:
# Format in all cases: biochemical
# [1] = Carboxylate reductase activity assay, pimelate semialdehyde to heptanedial (NADPH consumption, absorbance at 340 nm); conditions: purified enzyme enhanced by the gene product of sfp, 2 mM pimelate semialdehyde, 1 mM ATP, 1 mM NADPH, pH=7.5, room temperature, 20 min; against the empty vector control; FIG. 13
# Description: The N-terminal His-tagged carboxylate reductase of SEQ ID NO 7 (see Example 4 and FIG. 7F) was assayed using pimelate semialdehyde as substrate. The enzyme activity assay was performed in triplicate in a buffer composed of a final concentration of 50 mM HEPES buffer (pH=7.5), 2 mM pimelate semialdehyde, 10 mM MgCl2, 1 mM ATP and 1 mM NADPH. The enzyme activity assay reaction was initiated by adding purified carboxylate reductase and phosphopantetheine transferase or the empty vector control to the assay buffer containing the pimelate semialdehyde and then incubated at room temperature for 20 min. The consumption of NADPH was monitored by absorbance at 340 nm.
# [2] = Carboxylate reductase activity assay, pimelate to pimelate semialdehyde (NADPH consumption, absorbance at 340 nm); conditions: purified enzyme enhanced by the gene product of sfp, 2 mM pimelate, 1 mM ATP, 1 mM NADPH, pH=7.5, room temperature, 20 min; against the empty vector control; FIG. 10
# Description: A sequence encoding a HIS-tag was added to the genes from Segniliparus rugosus and Segniliparus rotundus that encode the carboxylate reductases of SEQ ID NOs: 4 and 7, respectively (see FIGS. 7C and 7F), such that N-terminal HIS tagged carboxylate reductases could be produced. Each of the modified genes was cloned into a pET Duet expression vector along with a sfp gene encoding a HIS-tagged phosphopantetheine transferase from Bacillus subtilis, both under the T7 promoter. Each expression vector was transformed into a BL21[DE3] E. coli host and the resulting recombinant E. coli strains were cultivated at 37° C. in a 250 mL shake flask culture containing 50 mL LB media and antibiotic selection pressure, with shaking at 230 rpm. Each culture was induced overnight at 37° C. using an auto-induction media.
# The pellet from each induced shake flask culture was harvested via centrifugation. Each pellet was resuspended and lysed via sonication, and the cell debris was separated from the supernatant via centrifugation. […]
# Enzyme activity assays (i.e., from pimelate to pimelate semialdehyde) were performed in triplicate in a buffer composed of a final concentration of 50 mM HEPES buffer (pH=7.5), 2 mM pimelate, 10 mM MgCl2, 1 mM ATP and 1 mM NADPH. […] The consumption of NADPH was monitored by absorbance at 340 nm.
# [3] = Carboxylate reductase activity assay, N7-acetyl-7-aminoheptanoate to N7-acetyl-7-aminoheptanal (NADPH consumption, absorbance at 340 nm); conditions: purified enzyme enhanced by the gene product of sfp, 2 mM N7-acetyl-7-aminoheptanoate, 1 mM ATP, 1 mM NADPH, pH=7.5, room temperature, 20 min; against the empty vector control; FIG. 12
# Description: The activity of each of the N-terminal His-tagged carboxylate reductases of SEQ ID NOs: 3, 6, and 7 (see Examples 4, and FIGS. 7B, 7E, and 7F) for converting N7-acetyl-7-aminoheptanoate to N7-acetyl-7-aminoheptanal was assayed in triplicate in a buffer composed of a final concentration of 50 mM HEPES buffer (pH=7.5), 2 mM N7-acetyl-7-aminoheptanoate, 10 mM MgCl2, 1 mM ATP, and 1 mM NADPH. The assays were initiated by adding purified carboxylate reductase and phosphopantetheine transferase or the empty vector control to the assay buffer containing the N7-acetyl-7-aminoheptanoate then incubated at room temperature for 20 min. The consumption of NADPH was monitored by absorbance at 340 nm.
molecule,measurement,setting,value
B1,carboxylate reductase activity for converting pimelate semialdehyde to heptanedial,[1],accepted pimelate semialdehyde as substrate
same,carboxylate reductase activity for converting pimelate to pimelate semialdehyde,[2],accepted pimelate as substrate
same,carboxylate reductase activity for converting N7-acetyl-7-aminoheptanoate to N7-acetyl-7-aminoheptanal,[3],accepted N7-acetyl-7-aminoheptanoate as substrate

# Source: patent US9637764B2, “Methods of producing 7-carbon chemicals via carbon chain elongation associated with cyclohexane carboxylate synthesis” (INVISTA North America S.á r.l., priority 2012, dated 2017)
